The values that follow come from IntAct's records for PubMed 17698606.

To fix the notation:
B1: S phase cyclin A-associated protein in the endoplasmic reticulum (Homo sapiens), Q9BY12 (parent)
chain: MMASFQRSNSHDKVRRIVAEEGRTARNLIAWSVPLESKDDDGKPKCQTGGKSKRTIQGTHKTTKQSTAVDCKITSSTTGDKHFDKSPTKTRHPRKIDLRARYWAFLFDNLRRAVDEIYVTCESDQSVVECKEVLMMLDNYVRDFKALIDWIQLQEKLEKTDAQSRPTSLAWEVKKMSPGRHVIPSPSTDRINVTSNARRSLNFGGSTGTVPAPRLAPTGVSWADKVKAHHTGSTASSEITPAQSCPPMTVQKASRKNERKDAEGWETVQRGRPIRSRSTAVMPKVSLATEATRSKDDSDKENVCLLPDESIQKGQFVGDGTSNTIESHPKDSLHSCDHPLAEKTQFTVSTLDDVKNSGSIRDNYVRTSEISAVHIDTECVSVMLQAGTPPLQVNEEKFPAEKARIENEMDPSDISNSMAEVLAKKEELADRLEKANEEAIASAIAEEEQLTREIEAEENNDINIETDNDSDFSASMGSGSVSFCGMSMDWNDVLADYEARESWRQNTSWGDIVEEEPARPPGHGIHMHEKLSSPSRKRTIAESKKKHEEKQMKAQQLREKLREEKTLKLQKLLEREKDVRKWKEELLDQRRRMMEEKLLHAEFKREVQLQAIVKKAQEEEAKVNEIAFINTLEAQNKRHDVLSKLKEYEQRLNELQEERQRRQEEKQARDEAVQERKRALEAERQARVEELLMKRKEQEARIEQQRQEKEKAREDAARERARDREERLAALTAAQQEAMEELQKKIQLKHDESIRRHMEQIEQRKEKAAELSSGRHANTDYAPKLTPYERKKQCSLCNVLISSEVYLFSHVKGRKHQQAVRENTSIQGRELSDEEVEHLSLKKYIIDIVVESTAPAEALKDGEERQKNKKKAKKIKARMNFRAKEYESLMETKNSGSDSPYKAKLQRLAKDLLKQVQVQDSGSWANNKVSALDRTLGEITRILEKENVADQIAFQAAGGLTALEHILQAVVPATNVNTVLRIPPKSLCNAINVYNLTCNNCSENCSDVLFSNKITFLMDLLIHQLTVYVPDENNTILGRNTNKQVFEGLTTGLLKVSAVVLGCLIANRPDGNCQPATPKIPTQEMKNKPSQGDPFNNRVQDLISYVVNMGLIDKLCACFLSVQGPVDENPKMAIFLQHAAGLLHAMCTLCFAVTGRSYSIFDNNRQDPTGLTAALQATDLAGVLHMLYCVLFHGTILDPSTASPKENYTQNTIQVAIQSLRFFNSFAALHLPAFQSIVGAEGLSLAFRHMASSLLGHCSQVSCESLLHEVIVCVGYFTVNHPDNQVIVQSGRHPTVLQKLCQLPFQYFSDPRLIKVLFPSLIAACYNNHQNKIILEQEMSCVLLATFIQDLAQTPGQAENQPYQPKGKCLGSQDYLELANRFPQQAWEEARQFFLKKEKK

The variants in the experiment derive from B1. The conditions noted are these: with cdk2_human CDK2, P24941.
Turning to R199A;S200A;L201A, the “effect of a mutation on the interaction” value is “disrupting interaction strength”.

For R26A;N27A;L28A, the “effect of a mutation on the interaction” value is “with no effect”.

For the variant R678A;L680A, the “effect of a mutation on the interaction” value is reported as “with no effect”.
